According to the supplement of paper PMC9170038:

Tested on: K4 kissing-loop RNA reporter
Assay: apparent KD of K4 kissing-loop reporter; higher = weaker reporter binding
Conditions: Eterna round: R107
Protocol: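 RNA-MaP round R107: designed RNA switches with theophylline, tryptophan, arginine or FMN aptamers are transcribed on-chip within common flanks. They are titrated with a labelled K4 kissing-loop RNA reporter in RNA-MaP buffer (100 mM Tris pH 7.5, 80 mM KCl, 4 mM MgCl2), without ligand or with the indicated ligand. Median apparent KD per design.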

[1] = input ligand: theophylline 20 uM
[2] = input ligand: tryptophan 2.4 mM
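Note: bound reporter read as fluorescence of individual clusters on recovered sequencing chips by microscopy, with normalized cluster intensities fitted with a binding model.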

| Sequence | apparent KD of K4 kissing-loop reporter (input ligand: FMN 200 uM) [µM] | apparent KD of K4 kissing-loop reporter (input ligand: arginine 13.2 mM) [µM] | apparent KD of K4 kissing-loop reporter (input ligand: none) [µM] | apparent KD of K4 kissing-loop reporter [1] [µM] | apparent KD of K4 kissing-loop reporter [2] [µM] |
| --- | --- | --- | --- | --- | --- |
| CCGGCCCAGCCGGAUACCAGUGCGCCGCAGGGAACGGCGGGCCCAGAGUGAUGUUCGGGACACCCUUGGCAGCCGCCUGGGUCCU [#2 Same State - Theophylline B Attempt #29 (HarryS)] | 0.85 | 0.662 | 0.718 | 0.767 | 0.864 |
| CCGGCCCGGCCGGAUACCAGUGCGCCGCUGGGAACCGCGGGCCCAGAGUGAUGUUCGGGACACCCUUGGCAGCCGCCUGGGUCGC [#2 Same State - Theophylline B Attempt #24 (HarryS)] | 0.398 | 0.14 | 0.247 | 0.217 | 0.24 |
| CCGUAUGUCCACUAUUGAGUGAUGUUCAAGCGAGGACCGGUACGGCCGCCACUCGCGUUACCCACCACGUGUCGCCGCACUUACC [theeternabot_exclusion_KL_Trp_A_42] | 0.203 | 0.16 | 0.203 | 0.159 | 0.37 |
| CCGUGGAGUGAUGUUCCACGUACUACGGAUACCAGCUUUGCCAAAGGCCCUUGGCAGCCGCACGUUGCAGUGAUGUUGUGGCGCG [Same State Theophylline A G9] | 0.345 | 0.241 | 0.327 | 0.328 | 0.299 |
| CCGUGGAGUGAUGUUCCACGUUCUACGGAUACCAGCCACGCCAGCGGCCCUUGGCAGCCGCACCUUGCAGUGAUGUUGUGAGGCU [Same State Theophylline A GF 5] | 0.365 | 0.312 | 0.349 | 0.33 | 0.302 |
| CCUUCUCUUGAUAGUGAUGUUAUCGAGGACAAGGAUAUCAUCUCAAUGAGAAGGUGUCCUUGAUAACAUGGAGGUCUGAAACAGA [Omei KL FMN A Exc C v9] | 0.205 | 0.355 | 0.439 | 0.427 | 0.454 |
| CCUUUCUGUUACGAUACCAGUCUAAUAUAUUUGAUCAAUACCCUCGCCGAGUGAUGUUCGGACCCUUGGCAGCGUCUGGGACAGG [aazwmullin] | 0.482 | 0.438 | 0.493 | 0.468 | 0.451 |
| CGAGAAAGAGCGACUGGCGAUCUGUCUGAAGGAGCGGGUGCUAGCCCAGGUAGGUCGCAGACUUUGACGCCAGUGAUGUUGGCGG [Titidiisxe] | 0.21 | 0.175 | 0.222 | 0.134 | 0.178 |
| CGAGUGAUGUUCGAAGAGUUGUUAAGCGAUACCAGCUAGGAAACUGGCCCUUGGCAGCGUAAUAAAUAAAUAAAUAAAUGAUCAC [whbob_Ex_Theo_A_th62] | 0.351 | 0.414 | 0.369 | 0.456 | 0.322 |
| CGCAGUGAUGUUGUGAUUAACUACAGGGAAGGAGCGUGCUAGAGCACAGGUAGGUCGCCCAGUGGCCGAGUGAUGUUCGGCGGGU [Same State Arginine A GF 27] | 0.237 | 0.189 | 0.227 | 0.25 | 0.188 |
| CGCCAGGGUGAAGGAUAUCCGUCUGAUUGAGCGCAGUGAUGUUGCGCGAUUCGUUCAUCGCUCGGAGGAGAAGGUCAGAUAACUC [theeternabot_sameState_KL_FMN_B_3] | 0.127 | 0.121 | 0.121 | 0.121 | 0.112 |
| CGCCGUAAGGCGAGCGCUCCCACUCCGGAAGGAGCGCCCGAAAGGGCAGGUAGGUCGCCGGAGUGAUGUUCCGGUGGAGGGCUCG [#2 Exclusion - Arginine A Attempt #28 (Inspired by Omei)] | 0.353 | 0.261 | 0.38 | 0.267 | 0.33 |
| CGCGCCCAGCCGGAUACCAGUGACCCGCUGGGAACCGCGGGCCCAGAGUGAUGUUCGGGACACCCUUGGCAGCCGCCUGGGCGAC [#2 Same State - Theophylline B Attempt #8 (HarryS)] | 0.993 | 0.378 | 1.13 | 0.525 | 0.509 |
| CGCGUACAGUGUUCUACGGCCGAGAGUGAUACCAGCCGUAUUUGUGGCCCUUGGCAGCGCAGAUGCAGUGAUGUUGCAUACUUGG [Same State Theophylline A GF 21] | 0.0986 | 0.139 | 0.135 | 0.149 | 0.0854 |
| CGCUUGCACGGAAGGAGCGUCCAAGCGAGACACGAGUGAUGUUCGUGAUCGACGUAAACUGGACAGGUAGGUCGCCGUGCUUAAU [Eresti] | 0.107 | 0.091 | 0.121 | 0.101 | 0.1 |
| CGCUUGGGUGCGGCCGCCACUAGAGCGUGACACGGGUCCCAAAAGGGUGCAGUGAUGUUGCAGCCUAGGACCGGGCACCUCUGGC [Beveesbe] | 0.107 | 0.083 | 0.0904 | 0.0701 | 0.167 |
| CGGAGUCGCGGAAGGAGCGCUCGAUAGACAAGUUGAUCGUGCCGUGGUCGAGUGAUGUUCGAGCAGGUAGGUCGCCGUCGGUCCC [Cexeatedma] | 0.252 | 0.204 | 0.242 | 0.229 | 0.23 |
| CGGAGUGAUGUUCCUUUUAUUAAUUAUUAACGAGGACCGGUACGGCCGCCACUCGAUUUAGCUUUUAUUUAAUGCUUGGAUGUUU [JR_SSTryptoA_Sub003] | 0.132 | 0.224 | 0.157 | 0.246 | 0.077 |
| CGUACGGUUUCUUUCUUUCCGUACGAGUGCCGAGGACCGGUACGGCCGCCACUCGCUACAGCCUAGUGAUGUUAGGCGAUUCUUU | 0.129 | 0.117 | 0.125 | 0.163 | 0.102 |
| CGUUUAUAGCAGGAUACCAGUACCCAUAAAGUACGUUAAUAGUAGAGUGAUGUUCUAAAGUACCCUUGGCAGCUUAGAGUGAGUG [ExTheophylB.Q] | 0.0935 | 0.159 | 0.117 | 0.137 | 0.0764 |
| CGUUUAUAGCAGGAUACCAGUACCGAUAAAGUACGUUAAUAGUAGAGUGAUGUUCUAAAGUACCCUUGGCAGCUUAGAGUGAGUG [ExTheophylB.P] | 0.0953 | 0.142 | 0.111 | 0.162 | 0.0745 |
